Measured values from patent US20190010233A1 (JIANGSU HYAMAB PHARMACEUTICAL, published 2019).
Positions count from the first letter of the chain named.

B1: chimeric anti-PD-L1 antibody 73D3G2 (antibody, V domains shown)
VH: EVQLVESGGGLVQPGGSLRLSCAASGFTFNTYWMNWVRQAPGRGLEWVANIKQDGGEKYYVDSVKGRFTISRDNAKNSLYLQMNSLRAEDTAMYYCARDGRSWYPDAFDIWGQGTVVTVSS
VL: DIQMTQSPSTLSASVGDRVTITCRASQSISTWLAWYQQKLGKAPKLLIYEVSILESGVPSRFSGSGSGTEFTLTISSLQPDDFATYYCQQYHSFSSFGGGTRVEIK
notes: Purified from hybridoma of Harbour H2L2 mice: human variable regions, rat constant regions
B2: chimeric anti-PD-L1 antibody 105C5D7 (antibody, V domains shown)
VH: EVQLVESGGGLVQPGGSLRLSCAASGFTFSSYWMSWVRQAPGKGLEWVANIKQDGNEKYYVDSVKGRFTISRDNAKNSLYLQMNSLRAEDTAVYYCARNIKWGDAFDIWGQGTMVTVSS
VL: DIQMTQSPSSLSASVGDRVTITCRASQSISSYLNWYQQKPGKAPKLLIYAASSLQSGVPSRFSGSGSGTDFTLTISSLQPEDFAIYSCQQSYSIPLTFGGGTKVEIK
notes: as for B1
B3: chimeric anti-PD-L1 antibody 127D2F3 (antibody, V domains shown)
VH: EVQLVESGGGLVQPGGSLRLSCVASGFTFSSYWMSWVRQAPGKGLEWVANIKQDGSEKYYVDSVKGRLTISRDNAKNSLYLQMKSLRAEDTAVYYCARDPIYSSYFDYWGQGILVTVSS
VL: B2 VL with S31N, I85A, S87Y, S93G, L96F, G100P, E105D
notes: as for B1
B4: chimeric anti-PD-L1 antibody 192D9E7 (antibody, V domains shown)
VH: EVQLVESGGGLVQPGGSLRLSCAASGFTFSSYWMSWVRQAPGKGLEWVADIKQDGSEKYYVDSVKGRFTISRDNAKNSLYLQMNSLRAEDTAVYYCTRDKPHWGGVMDAWGQGTSVTVSS
VL: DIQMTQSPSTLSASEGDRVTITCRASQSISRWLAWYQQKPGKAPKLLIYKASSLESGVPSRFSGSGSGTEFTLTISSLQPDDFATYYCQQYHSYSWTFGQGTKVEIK
notes: as for B1
B5: chimeric anti-PD-L1 antibody 78A11F6 (antibody, V domains shown)
VH: EVQLVESGGGLVQPGGSLRLSCAASGITFSSYWMSWVRQTPGKGLEWVANIKQDGSEKYYVKSVKGRFTISRDNAKNSLYLQMNSLRAEDTAVYYCVRDRAVPGTGAFDIWGQGTMVIVSS
VL: DIQMTQSPSTLSASVGDRVTITCRASQSISNWLAWYQQKPGKAPKLLIYKASSLESGVPSRFSGSGSGTEFTLTISSLQPDDFATYYCQQYDSSLFTFGQGTKLEIK
notes: as for B1
B6: chimeric anti-PD-L1 antibody 73G11B3 (antibody, V domains shown)
VH: B5 VH with A23V, A24V, I27F, K62D, F68L, F108L, I118T
VL: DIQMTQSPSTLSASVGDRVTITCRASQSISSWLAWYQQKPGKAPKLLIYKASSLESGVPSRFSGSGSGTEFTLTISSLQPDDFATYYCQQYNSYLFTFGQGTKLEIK
notes: as for B1

Tests used:
[1] = biological target: T1, full length cyno PD-L1 on cells (cyno, UniProt G7PSE7 19-290); assay: FACS CHO-K1-cPD-L1, 100.00 nM mAb
T1 construct: also called CHO-K1-cPD-L1
T1 sequence (G7PSE7 entry or part of it limits assumed): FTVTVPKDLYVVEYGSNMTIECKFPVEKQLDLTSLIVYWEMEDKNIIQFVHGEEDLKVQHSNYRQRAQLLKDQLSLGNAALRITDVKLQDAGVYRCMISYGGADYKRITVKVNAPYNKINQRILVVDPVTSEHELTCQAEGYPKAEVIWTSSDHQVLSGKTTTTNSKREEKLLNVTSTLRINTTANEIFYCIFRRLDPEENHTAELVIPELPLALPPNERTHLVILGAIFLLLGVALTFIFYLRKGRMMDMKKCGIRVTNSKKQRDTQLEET
Experimental: (§1) Other CHO-K1 were stably transfected with a pIRES plasmid containing the nucleic acid sequence encoding full length cyno PD-L1 to generate CHO-K1 cells stably expressing cyno PD-L1 (herein referred to as CHO-K1-cPD-L1 cells). […] The culture media was aspirated, and the cells were washed twice with HBSS (Hanks Balanced Salt Solution, Invitrogen). The cells were treated with enzyme-free cell dissociation solution (Versene solution, Invitrogen) and collected. The cells were then washed twice with HBSS, cell counts were determined, and cells were resuspended with HBSS at 2×10⁶ cells/mL. Goat serum was added to the cell suspension to a final concentration of 1%, and the cells were blocked for 30 minutes on ice and then washed twice with HBSS. The cells were collected after centrifugation and resuspended in FACS buffer (HBSS+1% BSA, v/v) at 2×10⁶ cells/mL. 100 μL of the cell suspension were then added to each well of 96-well plate. 100 μL of purified anti-PD-L1 antibodies from Example 2 were added to each well of the 96-well plate and incubated for 2 hours on ice. […] The samples were washed three times with FACS buffer, and 100 μL fixation buffer (4% paraformaldehyde v/v) were added to each well and incubated for 10 minutes. The cells were then washed twice with FACS buffer and resuspended in 100 μL FACS buffer. The mean fluorescence intensity (MFI) was determined using FACS Calibur (BD), and the results are shown in FIGS. 7-8 and in Tables 10-11.

[2] = biological target: T2, full length human PD-L1 on cells (human, UniProt Q9NZQ7 19-290); assay: FACS CHO-K1-hPD-L1, 0.41 nM mAb
T2 construct: Also used as the target of the cell-based functional assays (transfected stimulator cells; PD-L1 of the cells in the mixed lymphocyte reaction); also called CHO-K1-hPD-L1; CHOK1-hPD-L1
T2 sequence (Q9NZQ7 19-290 limits assumed): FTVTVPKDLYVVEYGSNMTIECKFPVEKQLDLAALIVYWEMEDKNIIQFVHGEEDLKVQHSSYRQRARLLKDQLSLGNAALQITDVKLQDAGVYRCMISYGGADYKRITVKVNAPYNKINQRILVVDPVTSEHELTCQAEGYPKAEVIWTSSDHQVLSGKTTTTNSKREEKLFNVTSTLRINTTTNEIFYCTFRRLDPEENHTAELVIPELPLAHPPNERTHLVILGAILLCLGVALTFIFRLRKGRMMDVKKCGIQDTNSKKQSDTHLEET
Experimental: as §1

[3] = biological target: T2, full length human PD-L1 on cells; assay: cell-based or functional assay
[4] = biological target: T3, human PD-L1^ECD-hFc protein (human, UniProt Q9NZQ7 19-239, biotinylated in the PD-1 binding ELISA (Table 3) and in the Octet assay (Table 12)); assay: BLI Octet Red 96, biotinylated PD-L1-hFc on SA sensor
T3 construct: The plain and the biotinylated protein are kept as one molecule; also called PD-L1-hFc; Immunogen A; not shown: human IgG Fc fragment (hFc)
T3 sequence (Q9NZQ7 19-239): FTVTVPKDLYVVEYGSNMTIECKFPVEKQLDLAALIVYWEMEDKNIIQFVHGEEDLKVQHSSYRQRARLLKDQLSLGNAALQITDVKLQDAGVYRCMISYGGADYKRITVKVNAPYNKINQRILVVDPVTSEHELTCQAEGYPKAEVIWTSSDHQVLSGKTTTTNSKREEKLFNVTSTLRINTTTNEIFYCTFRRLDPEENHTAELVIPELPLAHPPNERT
Experimental: Dissociation constants were determined by Octed red 96 (Fortiebio). The detailed operation and methods were followed according to the specifications of the instrument provided by the manufacturer. Briefly, a streptavidin sensor (SA sensor, Fortiebio) was used for the affinity determination. […] The reaction mixture was further incubated in PBS buffer (pH 7.4) containing 0.1% (v/w) BSA and 0.02% (v/v) Tween20 at 30° C. for 5 minutes.

[5] = biological target: T3, human PD-L1^ECD-hFc protein; assay: ELISA, 3.333 nM mAb
Experimental: (§2) 100 μL of the diluted recombinant proteins were added to each well of 96-well plate. The plates were sealed with plastic film and incubated at 4° C. overnight. The plates were washed twice with wash buffer (PBS+0.01% (v/v) Tween20), and incubated with blocking buffer (PBS+0.01% (v/v) Tween20+1% (w/w) BSA) at room temperature for 2 hours. The blocking buffer was aspirated away, and 100 μL of purified anti-PD-L1 antibodies were added to each well and incubated for 2 hours at 37° C. The plates were washed three times with wash buffer (PBS+0.01% (v/v) Tween20). HRP-conjugated secondary antibody (Sigma) was added to each well and incubated for 2 hours at 37° C. After the plates were washed three times with wash buffer, 100 μL TMB substrate were added to each well, and the plates were incubated for 30 minutes at room temperature. 100 μL stop solution (0.1N HCl) was added to each well to stop the reaction.

[6] = biological target: T4, cyno PD-L1^ECD-hFc protein (cyno, UniProt G7PSE7 19-239); assay: ELISA, 3.333 nM mAb
T4 construct: also called Cyno Monkey PD-L1^ECD-hFc
T4 sequence (G7PSE7 entry or part of it limits assumed): as the sequence (Q9NZQ7 19-239) above, with A33T, A34S, S62N, R68Q, Q82R, F173L, T185A, T192I, H215L counted along it
Experimental: as §2

[7] = biological target: T1, full length cyno PD-L1 on cells; assay: FACS CHO-K1-cPD-L1, 3.70 nM mAb
Experimental: as §1

[8] = biological target: T3, human PD-L1^ECD-hFc protein; assay: ELISA, 10 nM mAb
Experimental: as §2

[9] = biological target: T4, cyno PD-L1^ECD-hFc protein; assay: ELISA, 10 nM mAb
Experimental: as §2

[10] = biological target: T2, full length human PD-L1 on cells; assay: FACS CHO-K1-hPD-L1, 100.00 nM mAb
[11] = biological target: T2, full length human PD-L1 on cells; assay: FACS CHO-K1-hPD-L1, 11.11 nM mAb
[12] = biological target: T2, full length human PD-L1 on cells; assay: FACS CHO-K1-hPD-L1, 3.70 nM mAb
Experimental: as §1

[13] = biological target: T2, full length human PD-L1 on cells; assay: cell-based or functional assay; remark: listed apart in the source
[14] = biological target: T3, human PD-L1^ECD-hFc protein; assay: ELISA, 0.1 nM mAb
Experimental: as §2

[15] = biological target: T2, full length human PD-L1 on cells; assay: FACS CHO-K1-hPD-L1, 0.01 nM mAb
[16] = biological target: T2, full length human PD-L1 on cells; assay: FACS CHO-K1-hPD-L1, 1 nM mAb

| Binder | Mean fluorescence intensity [1] | Mean fluorescence intensity [2] | IFN-γ (pg/mL), PBMC stimulation, 0.001 µg/mL mAb [3] | IFN-γ (pg/mL), PBMC stimulation, 0.01 µg/mL mAb [3] | IFN-γ (pg/mL), PBMC stimulation, 0.1 µg/mL mAb [3] | IFN-γ (pg/mL), PBMC stimulation, 1 µg/mL mAb [3] | Kd [4] | koff [4] | kon [4] | OD450 nm [5] | OD450 nm [6] | Mean fluorescence intensity [7] | OD450 nm [8] | OD450 nm [9] | Mean fluorescence intensity [10] | Mean fluorescence intensity [11] | Mean fluorescence intensity [12] | IL-2 (pg/mL), MLR donor1, 0.001 µg/mL mAb [13] | IL-2 (pg/mL), MLR donor1, 0.01 µg/mL mAb [13] | IL-2 (pg/mL), MLR donor1, 0.1 µg/mL mAb [13] | further results |
| --- | --- | --- | --- | --- | --- | --- | --- | --- | --- | --- | --- | --- | --- | --- | --- | --- | --- | --- | --- | --- | --- |
| B1 | 137 | 87 | 3830 pg/mL | 3280 pg/mL | 9560 pg/mL | 8760 pg/mL | < 0.001 nM | < 1e-07 s⁻¹ | 398000 M⁻¹ s⁻¹ | 2.03 | 2.03 | 126 | 2.09 | 2.09 | 124 | 114 | 113 | – | – | – | – |
| B2 | 120 | 137 | 1640 pg/mL | 3380 pg/mL | 5850 pg/mL | 7570 pg/mL | 0.245 nM | 0.000368 s⁻¹ | 1.5e+06 M⁻¹ s⁻¹ | 1.5 | 1.5 | 142 | 1.56 | 1.56 | 182 | 201 | 203 | – | – | – | – |
| B3 | 117 | – | 3380 pg/mL | 7030 pg/mL | 7610 pg/mL | 8100 pg/mL | < 0.001 nM | < 1e-07 s⁻¹ | 368000 M⁻¹ s⁻¹ | – | – | – | 2.7 | – | 234 | – | – | 226 pg/mL | 274 pg/mL | 429 pg/mL | IL-2 (pg/mL), MLR donor1, 1 µg/mL mAb [13]: 497 pg/mL; IL-2 (pg/mL), MLR donor1, 10 µg/mL mAb [13]: 440 pg/mL; IFN-γ (pg/mL), PBMC stimulation, 10 µg/mL mAb [3]: 10100 pg/mL; OD450 nm [14]: 1.65; Mean fluorescence intensity [15]: 5.31; Mean fluorescence intensity [16]: 88.5 |
| B4 | 87.9 | – | 602 pg/mL | 501 pg/mL | 7470 pg/mL | 8300 pg/mL | 0.0519 nM | 2.63e-05 s⁻¹ | 506000 M⁻¹ s⁻¹ | – | – | – | 2.69 | – | 146 | – | – | 211 pg/mL | 371 pg/mL | 473 pg/mL | IL-2 (pg/mL), MLR donor1, 1 µg/mL mAb [13]: 461 pg/mL; IL-2 (pg/mL), MLR donor1, 10 µg/mL mAb [13]: 488 pg/mL; IFN-γ (pg/mL), PBMC stimulation, 10 µg/mL mAb [3]: 15700 pg/mL; OD450 nm [14]: 1.55; Mean fluorescence intensity [15]: 7.85; Mean fluorescence intensity [16]: 97.6 |
| B5 | 144 | 105 | 3740 pg/mL | 11100 pg/mL | 6100 pg/mL | 13000 pg/mL | 0.148 nM | 3.64e-05 s⁻¹ | 245000 M⁻¹ s⁻¹ | 1.73 | 2 | 139 | 1.72 | 2.07 | 232 | 210 | 199 | – | – | – | – |
| B6 | 107 | – | 2400 pg/mL | 5700 pg/mL | 6290 pg/mL | 7860 pg/mL | 0.116 nM | 3.95e-05 s⁻¹ | 341000 M⁻¹ s⁻¹ | – | – | – | 2.73 | – | 215 | – | – | 216 pg/mL | 365 pg/mL | 453 pg/mL | IL-2 (pg/mL), MLR donor1, 1 µg/mL mAb [13]: 426 pg/mL; IL-2 (pg/mL), MLR donor1, 10 µg/mL mAb [13]: 477 pg/mL; IFN-γ (pg/mL), PBMC stimulation, 10 µg/mL mAb [3]: 10700 pg/mL; OD450 nm [14]: 0.88; Mean fluorescence intensity [15]: 3.96; Mean fluorescence intensity [16]: 107 |
